Publication PMC11153135

Biological target: purified human SLAMF4 (hSLAMF4) protein, recombinant (human) (UniProt Q9BZW8)
Assay: MST; Monolith NT.115; GST–lytC_22 in a gradient (11 to 0.34375 μg μl^-1) mixed 1:1 (vol/vol) with 0.2 μg μl^-1 fluorescently pre-labelled recombinant Slamf4, 30 min at room temperature; medium MST power; apparent

UniProt Q9BZW8, sequence (Q9BZW8 22-229): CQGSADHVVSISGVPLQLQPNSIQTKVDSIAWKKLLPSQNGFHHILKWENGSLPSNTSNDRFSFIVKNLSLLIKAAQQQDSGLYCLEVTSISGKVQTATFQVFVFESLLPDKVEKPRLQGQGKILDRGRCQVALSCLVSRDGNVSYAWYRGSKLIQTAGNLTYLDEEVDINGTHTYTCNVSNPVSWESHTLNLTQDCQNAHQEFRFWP

“GST–lytC_22 (recombinant glutathione S-transferase-tagged N-acetylmuramoyl-L-alanine amidase lytC_22 of P. anaerobius) (natural protein)” was tested, and the Kd was 40.1 nM.
